{"source": "patent US20130344073", "proteins": {"B1": {"name": "catalytically-inactive MASP-1 (S646A) (protein)", "chain": "HTVELNNMFGQIQSPGYPDSYPSDSEVTWNITVPDGFRIKLYFMHFNLESSYLCEYDYVKVETEDQVLATFCGRETTDTEQTPGQEVVLSPGSFMSITFRSDFSNEERFTGFDAHYMAVDVDECKEREDEELSCDHYCHNYIGGYYCSCRFGYILHTDNRTCRVECSDNLFTQRTGVITSPDFPNPYPKSSECLYTIELEEGFMVNLQFEDIFDIEDHPEVPCPYDYIKIKVGPKVLGPFCGEKAPEPISTQSHSVLILFHSDNSGENRGWRLSYRAAGNECPELQPPVHGKIEPSQAKYFFKDQVLVSCDTGYKVLKDNVEMDTFQIECLKDGTWSNKIPTCKIVDCRAPGELEHGLITFSTRNNLTTYKSEIKYSCQEPYYKMLNNNTGIYTCSAQGVWMNKVLGRSLPTCLPVCGLPKFSRKLMARIFNGRPAQKGTTPWIAMLSHLNGQPFCGGSLLGSSWIVTAAHCLHQSLDPEDPTLRDSDLLSPSDFKIILGKHWRLRSDENEQHLGVKHTTLHPQYDPNTFENDVALVELLESPVLNAFVMPICLPEGPQQEGAMVIVSGWGKQFLQRFPETLMEIEIPIVDHSTCQKAYAPLKKKVTRDMICAGEKEGGKDACAGDAGGPMVTLNRERGQWYLVGTVSWGDDCGKKDRYGVYSYIHHNKDWIQRVTGVRN"}, "B2": {"name": "human MASP-3 (protein)", "chain": "HTVELNNMFGQIQSPGYPDSYPSDSEVTWNITVPDGFRIKLYFMHFNLESSYLCEYDYVKVETEDQVLATFCGRETTDTEQTPGQEVVLSPGSFMSITFRSDFSNEERFTGFDAHYMAVDVDECKEREDEELSCDHYCHNYIGGYYCSCRFGYILHTDNRTCRVECSDNLFTQRTGVITSPDFPNPYPKSSECLYTIELEEGFMVNLQFEDIFDIEDHPEVPCPYDYIKIKVGPKVLGPFCGEKAPEPISTQSHSVLILFHSDNSGENRGWRLSYRAAGNECPELQPPVHGKIEPSQAKYFFKDQVLVSCDTGYKVLKDNVEMDTFQIECLKDGTWSNKIPTCKIVDCRAPGELEHGLITFSTRNNLTTYKSEIKYSCQEPYYKMLNNNTGIYTCSAQGVWMNKVLGRSLPTCLPECGQPSRSLPSLVKRIIGGRNAEPGLFPWQALIVVEDTSRVPNDKWFGSGALLSASWILTAAHVLRSQRRDTTVIPVSKEHVTVYLGLHDVRDKSGAVNSSAARVVLHPDFNIQNYNHDIALVQLQEPVPLGPHVMPVCLPRLEPEGPAPHMLGLVAGWGISNPNVTVDEIISSGTRTLSDVLQYVKLPVVPHAECKTSYESRSGNYSVTENMFCAGYYEGGKDTCLGDSGGAFVIFDDLSQRWVVQGLVSWGGPEECGSKQVYGVYTKVSNYVDWVWEQMGLPQSVVEPQVER"}, "B3": {"name": "recombinant MASP-1 (CCP1-CCP2-SP) fragment (enzyme, part only; not given: amino-terminal Strep tag)", "chain, part": "GNECPELQPPVHGKIEPSQAKYFFKDQVLVSCDTGYKVLKDNVEMDTFQIECLKDGTWSNKIPTCKIVDCRAPGELEHGLITFSTRNNLTTYKSEIKYSCQEPYYKMLNNNTGIYTCSAQGVWMNKVLGRSLPTCLPVCGLPKFSRKLMARIFNGRPAQKGTTPWIAMLSHLNGQPFCGGSLLGSSWIVTAAHCLHQSLDPKDPTLRDSDLLSPSDFKIILGKHWRLRSDENEQHLGVKHTTLHPKYDPNTFENDVALVELLESPVLNAFVMPICLPEGPQQEGAMVIVSGWGKQFLQRFPETLMEIEIPIVDHSTCQKAYAPLKKKVTRDMICAGEKEGGKDACSGDSGGPMVTLNRERGQWYLVGTVSWGDDCGKKDRYGVYSYIHHNKDWIQRVTGVRNHHHHHH"}}, "key": {"[1]": {"molecular_target": "ST-pro-factor D-His, P00746", "sequence (P00746 whole entry, looked up)": "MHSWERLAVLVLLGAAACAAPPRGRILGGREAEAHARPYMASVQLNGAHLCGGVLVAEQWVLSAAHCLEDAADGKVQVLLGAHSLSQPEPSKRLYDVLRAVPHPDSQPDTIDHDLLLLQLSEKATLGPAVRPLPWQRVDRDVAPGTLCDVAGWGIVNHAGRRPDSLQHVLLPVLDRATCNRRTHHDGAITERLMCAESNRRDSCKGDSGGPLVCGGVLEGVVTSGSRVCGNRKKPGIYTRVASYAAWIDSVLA"}, "[2]": {"molecular_target": "pro-factor D-His, P00746", "sequence (P00746 whole entry, looked up)": "as above"}, "[3]": {"molecular_target": "purified plasma factor B, P00751", "sequence (P00751 26-764)": "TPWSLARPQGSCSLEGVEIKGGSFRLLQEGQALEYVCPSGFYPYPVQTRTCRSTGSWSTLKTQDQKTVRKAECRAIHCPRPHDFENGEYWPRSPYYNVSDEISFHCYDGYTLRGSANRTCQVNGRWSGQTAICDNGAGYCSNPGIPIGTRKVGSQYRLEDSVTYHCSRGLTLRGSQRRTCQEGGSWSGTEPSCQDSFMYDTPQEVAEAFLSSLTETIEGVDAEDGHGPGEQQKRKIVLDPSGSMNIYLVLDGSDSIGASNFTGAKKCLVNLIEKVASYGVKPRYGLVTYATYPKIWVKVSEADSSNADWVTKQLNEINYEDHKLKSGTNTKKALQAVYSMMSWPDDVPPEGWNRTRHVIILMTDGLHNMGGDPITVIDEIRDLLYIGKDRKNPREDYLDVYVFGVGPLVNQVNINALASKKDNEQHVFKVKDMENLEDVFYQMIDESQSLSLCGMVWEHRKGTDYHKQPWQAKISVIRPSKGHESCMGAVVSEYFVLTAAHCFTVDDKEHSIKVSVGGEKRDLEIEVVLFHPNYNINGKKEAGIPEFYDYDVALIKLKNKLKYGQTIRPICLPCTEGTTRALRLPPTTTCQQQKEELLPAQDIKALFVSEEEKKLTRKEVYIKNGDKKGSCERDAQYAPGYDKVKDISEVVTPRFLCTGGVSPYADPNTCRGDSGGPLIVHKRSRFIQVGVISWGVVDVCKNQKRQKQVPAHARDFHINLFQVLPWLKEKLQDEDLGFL"}, "[4]": {"molecular_target": "ST-pro-factor D-His (UniProt P00746)", "sequence (P00746 other isoform, or with tags, fused parts or gaps)": "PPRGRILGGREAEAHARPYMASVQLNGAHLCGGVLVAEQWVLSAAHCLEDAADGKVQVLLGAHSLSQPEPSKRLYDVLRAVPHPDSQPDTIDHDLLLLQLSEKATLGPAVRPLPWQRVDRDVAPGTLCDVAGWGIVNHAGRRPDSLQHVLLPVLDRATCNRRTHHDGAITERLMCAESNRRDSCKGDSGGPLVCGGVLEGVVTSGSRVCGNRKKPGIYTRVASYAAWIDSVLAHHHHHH"}, "[5]": {"molecular_target": "pro-factor D-His (UniProt P00746)", "sequence (P00746 other isoform, or with tags, fused parts or gaps)": "as above"}}}
{"protein": "B1", "values": [{"measurement": "cleavage of pro-factor D (Western blot)", "setting": "[1]", "value": "The catalytically-inactive full length MASP-3 (S679A; lane 3) and MASP-1 (S646A; lane 3) failed to cleave either substrate"}, {"measurement": "cleavage of pro-factor D (Western blot)", "setting": "[2]", "value": "The catalytically-inactive full length MASP-3 (S679A; lane 3) and MASP-1 (S646A; lane 3) failed to cleave either substrate"}]}
{"protein": "B2", "values": [{"measurement": "cleavage of pro-factor D (Western blot), 80 ng MASP-3, 70 ng substrate, 75 minutes at 37 C", "setting": "[1]", "value": "MASP-3 cleaves approximately 50% of pro-factor D into factor D (lane 1)"}, {"measurement": "factor B cleavage (Coomassie-stained SDS-PAGE), with C3(H2O)", "setting": "[3]", "value": "either MASP-3 or pro-factor D are able to mediate factor B cleavage, as long as C3 is present"}]}
{"protein": "B3", "values": [{"measurement": "cleavage of pro-factor D (Western blot)", "setting": "[4]", "value": "only full length MASP-3 (lane 2) and the MASP-1 CCP1-CCP2-SP) fragment (lane 5) cleaved ST-pro-factor D-His6"}, {"measurement": "cleavage of pro-factor D (Western blot)", "setting": "[5]", "value": "Identical results were obtained with the pro-factor D-His6 polypeptide (not shown)"}]}
